Laboratory results as given in patent US20170212131A1 (NEW YORK UNIVERSITY, published 2017).

What was measured:
[1] = molecular target: T1, Tau-phospho-serine 396/404 peptide; test: SPR (Biacore 2000), antibody immobilized, peptide as analyte
T1 construct: Synthetic 30-residue peptide (Keck Foundation, Yale University) used for panning, ELISA and Biacore
Method: (§1) Briefly, scFv235/antibody (10 μg/ml) was diluted in 10 mM sodium acetate, pH 5.0, and was immobilized on a separate CMS sensor chip with an amine coupling kit (7 min contact time at 5 μl/min flow rate). Unreacted surface-bound material was blocked with ethanolamine. One channel of each sensor chip, prepared in the same way without scFv235 or antibody, was used to monitor the nonspecific binding of the peptide. All measurements were done with HBS-EP buffer (10 mM HEPES at pH 7.4, 150 mM NaCl, 3.4 mM EDTA and 0.005% surfactant P20) at flow rate of 5 μl/min at 25° C. After each measurement, the chip surface was regenerated with 10 μl of a buffer containing 500 mM NaCl and 0.1M glycine HCl, pH 8.0. […] Table 5 and Table 6 summarize the kinetics and specificity of binding of the 6B2G12 antibody and scFv235.

[2] = molecular target: T1, Tau-phospho-serine 396/404 peptide; test: as above; remark: listed apart in the source
Method: as §1

[3] = molecular target: T1, Tau-phospho-serine 396/404 peptide; test: SPR (Biacore 2000), scFv immobilized, peptide as analyte
Method: as §1

[4] = molecular target: T1, Tau-phospho-serine 396/404 peptide; test: ratio of SPR KD values
[5] = molecular target: T1, Tau-phospho-serine 396/404 peptide; test: SPR (Biacore 2000), scFv immobilized, peptide as analyte; remark: listed apart in the source
Method: as §1

[6] = molecular target: T1, Tau-phospho-serine 396/404 peptide; test: ratio of association/dissociation from SPR

B1: antibody 6B2G12 (antibody, V domains shown)
VH: EVQLQQSGPELVKPGASVKISCKTSEYTFTEYTKHWVKQSHGKSLEWIGSINPNNGDTYYNQKFTDKATLTVDKSSTTASMELRSLTFEDSAVYYCAMGDSAWFAYWGQGTLVTVS
VL: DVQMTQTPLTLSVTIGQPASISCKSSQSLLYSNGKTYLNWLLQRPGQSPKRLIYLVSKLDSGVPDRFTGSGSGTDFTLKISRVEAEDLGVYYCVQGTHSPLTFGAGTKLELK
notes: Monoclonal antibody from hybridoma clone 6B2G12, whole antibody (about 150 kDa); also called parent antibody; parental antibody
Binder B1 has a Kd [1] of 0.395 nM, a Kd [2] of 0.395 nM and a koff [2] of 0.00146 s⁻¹. For the same binder, the kon [2] was 3.69e+06 M⁻¹ s⁻¹.

B2: scFv235 (scFv, not shown: small tags and cut ends)
scFv: ELDVVMTQTPLTLSVTIGQPASISCKSSQSLLYSNGKTYLNWLLQRPGQSPKRLIYLVSKLDSGVPDRFTGSGSGTDFTLKISRVEAEDLGVYYCVQGTHSPLTFGAGTKLELKSSGGGGSGGGGGGSSRSSLEVQLQQSGPELVKPGASVKISCKTSEYTFTEYTKHWVKQSHGKSLEWIGSINPNNGDTYYNQKFTDKATLTVDKSSTTASMELRSLTFEDSAVYYCAMGDSAWFAYWGQGTLVTVSA
notes: Made in E. coli from the phage display library of hybridoma 6B2G12; also called the scFv; His-tagged scFv235
For B2, the Kd [3] was 1040 nM, the “selectivity for the phosphorylated peptide (SEQ ID NO:28) relative to the non-phosphorylated peptide (SEQ ID NO:27)” value [4] was 3900 fold and the Kd [5] was 994 nM. The koff [5] was 0.0039 s⁻¹, the kon [5] was 3930 M⁻¹ s⁻¹ and the “fold lower affinity than antibody 6B2G12” value [6] was ~2510 fold.
